B1: TRA2B: host protein, UniProt P62995 (protein, UniProt P62995 2-288, looked up)
Transformer-2 protein homolog …: SDSGEQNYGERESRSASRSGSAHGSGKSARHTPARSRSKEDSRRSRSKSRSRSESRSRSRRSSRRHYTRSRSRSRSHRRSRSRSYSRDYRRRHSHSHSPMSTRRRHVGNRANPDPNCCLGVFGLSLYTTERDLREVFSKYGPIADVSIVYDQQSRRSRGFAFVYFENVDDAKEAKERANGMELDGRRIRVDFSITKRPHTPTPGIYMGRPTYGSSRRRDYYDRGYDRGYDDRDYYSRSYRGGGGGGGGWRAAQDRDQIYRRRSPSPYYSRGGYRSRSRSRSYSPRRY
B2: HNRNPA0 (protein, UniProt Q13151 1-305, looked up)
Heterogeneous nuclear …: MENSQLCKLFIGGLNVQTSESGLRGHFEAFGTLTDCVVVVNPQTKRSRCFGFVTYSNVEEADAAMAASPHAVDGNTVELKRAVSREDSARPGAHAKVKKLFVGGLKGDVAEGDLIEHFSQFGTVEKAEIIADKQSGKKRGFGFVYFQNHDAADKAAVVKFHPIQGHRVEVKKAVPKEDIYSGGGGGGSRSSRGGRGGRGRGGGRDQNGLSKGGGGGYNSYGGYGGGGGGGYNAYGGGGGGSSYGGSDYGNGFGGFGSYSQHQSSYGPMKSGGGGGGGGSSWGGRSNSGPYRGGYGGGGGYGGSSF
B3: RBM47: host protein, UniProt A0AV96 (protein, UniProt A0AV96 1-593, looked up)
RNA-binding protein 47: MTAEDSTAAMSSDSAAGSSAKVPEGVAGAPNEAALLALMERTGYSMVQENGQRKYGGPPPGWEGPHPQRGCEVFVGKIPRDVYEDELVPVFEAVGRIYELRLMMDFDGKNRGYAFVMYCHKHEAKRAVRELNNYEIRPGRLLGVCCSVDNCRLFIGGIPKMKKREEILEEIAKVTEGVLDVIVYASAADKMKNRGFAFVEYESHRAAAMARRKLMPGRIQLWGHQIAVDWAEPEIDVDEDVMETVKILYVRNLMIETTEDTIKKSFGQFNPGCVERVKKIRDYAFVHFTSREDAVHAMNNLNGTELEGSCLEVTLAKPVDKEQYSRYQKAARGGGAAEAAQQPSYVYSCDPYTLAYYGYPYNALIGPNRDYFVKAGSIRGRGRGAAGNRAPGPRGSYLGGYSAGRGIYSRYHEGKGKQQEKGYELVPNLEIPTVNPVAIKPGTVAIPAIGAQYSMFPAAPAPKMIEDGKIHTVEHMISPIAVQPDPASAAAAAAAAAAAAAAVIPTVSTPPPFQGRPITPVYTVAPNVQRIPTAGIYGASYVPFAAPATATIATLQKNAAAAAAMYGGYAGYIPQAFPAAAIQVPIPDVYQTY
B4: NONO: host protein, UniProt Q15233 (protein, UniProt Q15233 1-471, looked up)
Non-POU domain-containing …: MQSNKTFNLEKQNHTPRKHHQHHHQQQHHQQQQQQPPPPPIPANGQQASSQNEGLTIDLKNFRKPGEKTFTQRSRLFVGNLPPDITEEEMRKLFEKYGKAGEVFIHKDKGFGFIRLETRTLAEIAKVELDNMPLRGKQLRVRFACHSASLTVRNLPQYVSNELLEEAFSVFGQVERAVVIVDDRGRPSGKGIVEFSGKPAARKALDRCSEGSFLLTTFPRPVTVEPMDQLDDEEGLPEKLVIKNQQFHKEREQPPRFAQPGSFEYEYAMRWKALIEMEKQQQDQVDRNIKEAREKLEMEMEAARHEHQVMLMRQDLMRRQEELRRMEELHNQEVQKRKQLELRQEEERRRREEEMRRQQEEMMRRQQEGFKGTFPDAREQEIRMGQMAMGGAMGINNRGAMPPAPVPAGTPAPPGPATMMPDGTLGLTPPTTERFGQAATMEGIGAIGGTPPAFNRAAPGAEFAPNKRRRY
B5: DAZAP1: host protein, UniProt Q96EP5 (protein, UniProt Q96EP5 1-407, looked up)
DAZ-associated protein 1: MNNSGADEIGKLFVGGLDWSTTQETLRSYFSQYGEVVDCVIMKDKTTNQSRGFGFVKFKDPNCVGTVLASRPHTLDGRNIDPKPCTPRGMQPERTRPKEGWQKGPRSDNSKSNKIFVGGIPHNCGETELREYFKKFGVVTEVVMIYDAEKQRPRGFGFITFEDEQSVDQAVNMHFHDIMGKKVEVKRAEPRDSKSQAPGQPGASQWGSRVVPNAANGWAGQPPPTWQQGYGPQGMWVPAGQAIGGYGPPPAGRGAPPPPPPFTSYIVSTPPGGFPPPQGFPQGYGAPPQFSFGYGPPPPPPDQFAPPGVPPPPATPGAAPLAFPPPPSQAAPDMSKPPTAQPDFPYGQYAGYGQDLSGFGQGFSDPSQQPPSYGGPSVPGSGGPPAGGSGFGRGQNHNVQGFHPYRR
B6: HNRNPH1 (protein, UniProt P31943 1-449, looked up)
Heterogeneous nuclear …: MMLGTEGGEGFVVKVRGLPWSCSADEVQRFFSDCKIQNGAQGIRFIYTREGRPSGEAFVELESEDEVKLALKKDRETMGHRYVEVFKSNNVEMDWVLKHTGPNSPDTANDGFVRLRGLPFGCSKEEIVQFFSGLEIVPNGITLPVDFQGRSTGEAFVQFASQEIAEKALKKHKERIGHRYIEIFKSSRAEVRTHYDPPRKLMAMQRPGPYDRPGAGRGYNSIGRGAGFERMRRGAYGGGYGGYDDYNGYNDGYGFGSDRFGRDLNYCFSGMSDHRYGDGGSTFQSTTGHCVHMRGLPYRATENDIYNFFSPLNPVRVHIEIGPDGRVTGEADVEFATHEDAVAAMSKDKANMQHRYVELFLNSTAGASGGAYEHRYVELFLNSTAGASGGAYGSQMMGGMGLSNQSSYGGPASQQLSGGYGGGYGGQSSMSGYDQVLQENSSDFQSNIA
B7: CIRBP: host protein, UniProt Q14011 (protein, UniProt Q14011 1-172, looked up)
Cold-inducible RNA-binding …: MASDEGKLFVGGLSFDTNEQSLEQVFSKYGQISEVVVVKDRETQRSRGFGFVTFENIDDAKDAMMAMNGKSVDGRQIRVDQAGKSSDNRSRGYRGGSAGGRGFFRGGRGRGRGFSRGGGDRGYGGNRFESRSGGYGGSRDYYSSRSQSGGYSDRSSGGSYRDSYDSYATHNE

What follows are molecules tested on HCoV-OC43 gRNA and sgRNA. Details: 36 hpi; type n_36_v; tested against no-probe control; FDR<10%.
Assay type: binding
B1 was tested, and the “target (unweighted spectral count, OC43 Probe II capture)” value was 15. With B2 the “target (unweighted spectral count, OC43 Probe II capture)” value was 12. For B3, the “target (unweighted spectral count, OC43 Probe II capture)” value was 31. For B4, the “target (unweighted spectral count, OC43 Probe II capture)” value was 23. In the case of B5, the “target (unweighted spectral count, OC43 Probe II capture)” value is reported as 13. In the case of B6, the “target (unweighted spectral count, OC43 Probe II capture)” value is reported as 36.

Same assay, conditions: OC43 Probe II, 12 hpi (type n_12_v), infected cells; tested against no-probe control
In the case of B1, the “target (unweighted spectral count)” value is reported as 5. B3 was tested, and the “target (unweighted spectral count)” value was 10. With B4 the “target (unweighted spectral count)” value was 4. B6 was tested, and the “target (unweighted spectral count)” value was 15.

Same assay, conditions: OC43 Probe II, 24 hpi (type n_24_v), infected cells; tested against no-probe control
With B7 the “target (unweighted spectral count)” value was 7. B4 was tested, and the “target (unweighted spectral count)” value was 14. In the case of B5, the “target (unweighted spectral count)” value is reported as 7.

Same assay, conditions: type n_48_v; 48 hpi; OC43 Probe II capture on infected cells
With B1 the “target (unweighted spectral count, OC43 Probe II)” value was 12. With B2 the “target (unweighted spectral count, OC43 Probe II)” value was 13. For B7, the “target (unweighted spectral count, OC43 Probe II)” value was 12. B3 was tested, and the “target (unweighted spectral count, OC43 Probe II)” value was 27. With B4 the “target (unweighted spectral count, OC43 Probe II)” value was 31. For B5, the “target (unweighted spectral count, OC43 Probe II)” value was 22. In the case of B6, the “target (unweighted spectral count, OC43 Probe II)” value is reported as 53.

Same assay, conditions: type n_48_v; 48 hpi; no-probe control on infected cells
With B1 the “background (unweighted spectral count, no-probe control)” value was 2. With B2 the “background (unweighted spectral count, no-probe control)” value was 2. For B7, the “background (unweighted spectral count, no-probe control)” value was 1. For B3, the “background (unweighted spectral count, no-probe control)” value was 2. With B4 the “background (unweighted spectral count, no-probe control)” value was 3. With B5 the “background (unweighted spectral count, no-probe control)” value was 1. With B6 the “background (unweighted spectral count, no-probe control)” value was 6.

Same assay, conditions: type s_36_m; HCoV-OC43-infected HCT-8 cells, 36 hpi, Probe II
B1 was tested, and the “target (spectral count)” value was 15. In the case of B7, the “target (spectral count)” value is reported as 13. B3 was tested, and the “target (spectral count)” value was 31. For B4, the “target (spectral count)” value was 23. With B5 the “target (spectral count)” value was 13.

Same assay, conditions: type s_36_m; uninfected-probe control, 36 hpi, Probe II
In the case of B1, the “background (spectral count)” value is reported as 2. In the case of B7, the “background (spectral count)” value is reported as 2. In the case of B3, the “background (spectral count)” value is reported as 6. B4 was tested, and the “background (spectral count)” value was 4. With B5 the “background (spectral count)” value was 2.

The molecules below were run on SARS-CoV-2 gRNA. Details: not given.
Assay type: binding
With B4 the “enrichment in SARS-CoV-2 Probe I RNP capture” value was “found in the SARS-CoV-2 experiments”.

Same assay, conditions: […]; LC-MS/MS; Probe I sample (first 199 lines of Table 2)
B1 was tested, and the “target (unweighted spectral count of the protein in the RNP capture)” value was 13. B2 was tested, and the “target (unweighted spectral count of the protein in the RNP capture)” value was 12. With B7 the “target (unweighted spectral count of the protein in the RNP capture)” value was 12. For B3, the “target (unweighted spectral count of the protein in the RNP capture)” value was 12. In the case of B5, the “target (unweighted spectral count of the protein in the RNP capture)” value is reported as 13. For B6, the “target (unweighted spectral count of the protein in the RNP capture)” value was 78.

The molecules below were run on gRNA of HCoV-OC43. Details: type g_36_m; HCoV-OC43-infected HCT-8 cells, 36 hpi, Probe I.
Assay type: binding
B3 was tested, and the “target (spectral count)” value was 28. For B4, the “target (spectral count)” value was 28. B5 was tested, and the “target (spectral count)” value was 11.

Same assay, conditions: type g_36_m; uninfected-probe control, 36 hpi, Probe I
With B3 the “background (spectral count)” value was 5. With B4 the “background (spectral count)” value was 6. In the case of B5, the “background (spectral count)” value is reported as 1.

Same assay, conditions: type n_48_v: 48 hours post-infection, infected cells, OC43 Probe I; unweighted spectral count
B1 was tested, and the “target (spectral count, OC43 Probe I RNP capture)” value was 10. In the case of B2, the “target (spectral count, OC43 Probe I RNP capture)” value is reported as 12. In the case of B7, the “target (spectral count, OC43 Probe I RNP capture)” value is reported as 9. In the case of B3, the “target (spectral count, OC43 Probe I RNP capture)” value is reported as 26. With B4 the “target (spectral count, OC43 Probe I RNP capture)” value was 36. For B5, the “target (spectral count, OC43 Probe I RNP capture)” value was 18. For B6, the “target (spectral count, OC43 Probe I RNP capture)” value was 49.

Same assay, conditions: type n_48_v: 48 hours post-infection, no-probe control on infected cells
With B1 the “background (spectral count, no-probe control)” value was 2. For B2, the “background (spectral count, no-probe control)” value was 2. For B7, the “background (spectral count, no-probe control)” value was 1. For B3, the “background (spectral count, no-probe control)” value was 2. In the case of B4, the “background (spectral count, no-probe control)” value is reported as 3. In the case of B5, the “background (spectral count, no-probe control)” value is reported as 1. B6 was tested, and the “background (spectral count, no-probe control)” value was 6.

Each molecule was assayed on SARS-CoV-2 gRNA and sgRNAs. Details: not given.
Assay type: binding
B4 was tested, and the “enrichment in SARS-CoV-2 Probe II RNP capture” value was “found in the SARS-CoV-2 experiments”.

Same assay, conditions: Probe II capture; […]; LC-MS/MS LFQ
B1 was tested, and the “target (unweighted spectral count in RNP capture)” value was 8. B2 was tested, and the “target (unweighted spectral count in RNP capture)” value was 9. In the case of B7, the “target (unweighted spectral count in RNP capture)” value is reported as 15. B5 was tested, and the “target (unweighted spectral count in RNP capture)” value was 11. In the case of B6, the “target (unweighted spectral count in RNP capture)” value is reported as 61.

Same assay, conditions: no-probe control pull-down, used as background for Probe II
In the case of B1, the “background (unweighted spectral count in control)” value is reported as 1. In the case of B2, the “background (unweighted spectral count in control)” value is reported as 1. For B7, the “background (unweighted spectral count in control)” value was 1. In the case of B3, the “background (unweighted spectral count in control)” value is reported as 1. For B4, the “background (unweighted spectral count in control)” value was 1. For B5, the “background (unweighted spectral count in control)” value was 1. For B6, the “background (unweighted spectral count in control)” value was 1.
